# Test results taken from IntAct's records for PubMed 30126976.
# B1: FERM and PDZ domain-containing protein 1 (Homo sapiens), Q5SYB0 (parent)
# chain: MEELETSLFQTRKAHRIEQMVARWLRRSRDSSARAKVAAADGPARNPTQTLIPVRHTVKIDKDTLLQDYGFHISESLPLTVVAVTAGGSAHGKLFPGDQILQMNNEPAEDLSWERAVDILREAEDSLSITVVRCTSGVPKSSFLTEEKRARLKTNPVKVHFAEEVLISGHSQGNSLLCMPNVLKLYLENGQTKAFKFEANTTVKDIILTVKEKLSIRSIEYFALALEEQYSISRLHLLHEEELIQQVVEREESHDYRCLFRVCFVPKDPLDLLKEDPVAFEYLYLQSCSDVLQERFAVEMKCSSALRLAALHIQERIYACAQPQKISLKYIEKDWGIENFISPTLLRNMKGKDIKKAISFHMKRNQNLLEPRQKQLISAAQLRLNYLQILGELKTYGGRIFNATLMLQDRESYIALLVGAKYGISQVINSKLNIMSTLAEFANISRVELTEESEKVSVVKVYLQDVKVLTLLLESNSAKDLACLIAGYYRLLVDPVTSIFLWPGNKQQAHRVSAEEGYESRACSDSEESSEVDCVLEPLSDRRLVKLAPCRSLIKEEQPPGNSPTPEVARRGPSTCGASSTTDSAESEASDSANTESRGYRTSGSSESMDALEEDDLDTCSSSRSTFFHFGSPGLAESIDSDSQEERSGIETSGFLCLLDLAQRANPQCQKTEFSESAALETFGWAPELSTVRLDPRLYEGSHADYYSLCSSVSPASYLSDSSESTASRQGGAPPAWGQQGWTEAQPSSMLEPLALHPPLAFEDGSSDEEYYDAADKLTPPGPPSGPRDVSTAEPSATSLQNKASTSSPENSLPCGPDGRQPSRRGGVKKYAKTLRKRRSFLQTDYTSQVSFPLVPSASLESVDDVCYYDREPYLALGAPSPTVSSLQDMQGEPGLLETKALGLLAPLRETKSTNPASRVMEMEPETMETKSVIDSRVSSISAIRFRIDPNNKENSGVVPAASSSASTPHCSNPGSSGPDTAQARPSQILPLSQDLDGIAPKEPTIEHGDSSFSLSSGDPNPDRACLASNPGLNNVSQGDTLELQLEPHVQLEMGLESFCTNHIQETAPKYTEPLLSPRDEPRSDECGINPGEKIASIPTKEEPQGQLSLERDREVTNKNGTNVFQEESRKDSGDSPGDVSNNVSQTLDISSPAGKIVTSLSLDAPVTGTEQIPPHPPRDPQGQSREPPGQGCQAQEQKLFVELDLDPDFFLGKQTVSPAVPPEGIKAEAPNHVTGQDIAPRDSPEWVCFNPEPSLPEPLPCPQEDPHLETSNHCLLSEGKSDSSSICLSAEKSFLCFAPESHPEVSASLRVATSLGFAGMNEMVAPRIGMDQCSCQFSYATCFRGPQPETEEEDRDLEAHPMAPLTSPPSAGSPVVLPWRPARAHSCTTAPLSRKSHIWPEYCSRALRQLKATPASTPEGFIQLMESLLELQDILETSWGVGNKHPPEKCTWHFTESRSRLCMGSQKLLSSCRHVIRMDQSPEEMQGAVRDTFQHLVQLAGLCFQFTDCSRCSARHREAAGNLRDVVYTYHQFIEAAKSTCERGYHDLSVKLLARQCTALTAAVFCLTQKFRASTAL
# B2: Colorectal mutant cancer protein (Homo sapiens), P23508 (parent)
# chain: MNSGVAMKYGNDSSAELSELHSAALASLKGDIVELNKRLQQTERERDLLEKKLAKAQCEQSHLMREHEDVQERTTLRYEERITELHSVIAELNKKIDRLQGTTIREEDEYSELRSELSQSQHEVNEDSRSMDQDQTSVSIPENQSTMVTADMDNCSDLNSELQRVLTGLENVVCGRKKSSCSLSVAEVDKHIEQLTTASEHCDLAIKTVEEIEGVLGRDLYPNLAEERSRWEKELAGLREENESLTAMLCSKEEELNRTKATMNAIREERDRLRRRVRELQTRLQSVQATGPSSPGRLTSTNRPINPSTGELSTSSSSNDIPIAKIAERVKLSKTRSESSSSDRPVLGSEISSIGVSSSVAEHLAHSLQDCSNIQEIFQTLYSHGSAISESKIREFEVETERLNSRIEHLKSQNDLLTITLEECKSNAERMSMLVGKYESNATALRLALQYSEQCIEAYELLLALAESEQSLILGQFRAAGVGSSPGDQSGDENITQMLKRAHDCRKTAENAAKALLMKLDGSCGGAFAVAGCSVQPWESLSSNSHTSTTSSTASSCDTEFTKEDEQRLKDYIQQLKNDRAAVKLTMLELESIHIDPLSYDVKPRGDSQRLDLENAVLMQELMAMKEEMAELKAQLYLLEKEKKALELKLSTREAQEQAYLVHIEHLKSEVEEQKEQRMRSLSSTSSGSKDKPGKECADAASPALSLAELRTTCSENELAAEFTNAIRREKKLKARVQELVSALERLTKSSEIRHQQSAEFVNDLKRANSNLVAAYEKAKKKHQNKLKKLESQMMAMVERHETQVRMLKQRIALLEEENSRPHTNETSL
# B3: Protein FAM163B (Homo sapiens), P0C2L3 (parent)
# chain: MTAGTVVITGGILATVILLCIIAVLCYCRLQYYCCKKDESEEDEEEPDFAVHSHLPPLHSNRNLVLTNGPALYPTASTSFSQKSPQARALCRSCSHCEPPTFFLQEPPEEEEDVLNGGERVLYKSVSQEDVELPPGGFGGLQALNPNRLSAMREAFARSRSISTDV
# B4: Monocarboxylate transporter 2 (Homo sapiens), O60669 (parent)
# chain: MPPMPSAPPVHPPPDGGWGWIVVGAAFISIGFSYAFPKAVTVFFKEIQQIFHTTYSEIAWISSIMLAVMYAGGPVSSVLVNKYGSRPVVIAGGLLCCLGMVLASFSSSVVQLYLTMGFITGLGLAFNLQPALTIIGKYFYRKRPMANGLAMAGSPVFLSSLAPFNQYLFNTFGWKGSFLILGSLLLNACVAGSLMRPLGPNQTTSKSKNKTGKTEDDSSPKKIKTKKSTWEKVNKYLDFSLFKHRGFLIYLSGNVIMFLGFFAPIIFLAPYAKDQGIDEYSAAFLLSVMAFVDMFARPSVGLIANSKYIRPRIQYFFSFAIMFNGVCHLLCPLAQDYTSLVLYAVFFGLGFGSVSSVLFETLMDLVGAPRFSSAVGLVTIVECGPVLLGPPLAGKLVDLTGEYKYMYMSCGAIVVAASVWLLIGNAINYRLLAKERKEENARQKTRESEPLSKSKHSEDVNVKVSNAQSVTSERETNI
# B5: FERM and PDZ domain-containing protein 4 (Homo sapiens), Q14CM0 (parent)
# chain: MDVFSFVKIAKLSSHRTKSSGWPPPSGTWGLSQVPPYGWEMTANRDGRDYFINHMTQAIPFDDPRLESCQIIPPAPRKVEMRRDPVLGFGFVAGSEKPVVVRSVTPGGPSEGKLIPGDQIVMINDEPVSAAPRERVIDLVRSCKESILLTVIQPYPSPKSAFISAAKKARLKSNPVKVRFSEEVIINGQVSETVKDNSLLFMPNVLKVYLENGQTKSFRFDCSTSIKDVILTLQEKLSIKGIEHFSLMLEQRTEGAGTKLLLLHEQETLTQVTQRPSSHKMRCLFRISFVPKDPIDLLRRDPVAFEYLYVQSCNDVVQERFGPELKYDIALRLAALQMYIATVTTKQTQKISLKYIEKEWGLETFLPSAVLQSMKEKNIKKALSHLVKANQNLVPPGKKLSALQAKVHYLKFLSDLRLYGGRVFKATLVQAEKRSEVTLLVGPRYGISHVINTKTNLVALLADFSHVNRIEMFSEEESLVRVELHVLDVKPITLLMESSDAMNLACLTAGYYRLLVDSRRSIFNMANKKNTATQETGPENKGKHNLLGPDWNCIPQMTTFIGEGEQEAQITYIDSKQKTVEITDSTMCPKEHRHLYIDNAYSSDGLNQQLSQPGEAPCEADYRSLAQRSLLTLSGPETLKKAQESPRGAKVSFIFGDFALDDGISPPTLGYETLLDEGPEMLEKQRNLYIGSANDMKGLDLTPEAEGIQFVENSVYANIGDVKSFQAAEGIEEPLLHDICYAENTDDAEDEDEVSCEEDLVVGEMNQPAILNLSGSSDDIIDLTSLPPPEGDDNEDDFLLRSLNMAIAAPPPGFRDSSDEEDSQSQAASFPEDKEKGSSLQNDEIPVSLIDAVPTSAEGKCEKGLDNAVVSTLGALEALSVSEEQQTSDNSGVAILRAYSPESSSDSGNETNSSEMTESSELATAQKQSENLSRMFLATHEGYHPLAEEQTEFPASKTPAGGLPPKSSHALAARPATDLPPKVVPSKQLLHSDHMEMEPETMETKSVTDYFSKLHMGSVAYSCTSKRKSKLADGEGKAPPNGNTTGKKQQGTKTAEMEEEASGKFGTVSSRDSQHLSTFNLERTAFRKDSQRWYVATEGGMAEKSGLEAATGKTFPRASGLGAREAEGKEEGAPDGETSDGSGLGQGDRFLTDVTCASSAKDLDNPEDADSSTCDHPSKLPEADESVARLCDYHLAKRMSSLQSEGHFSLQSSQGSSVDAGCGTGSSGSACATPVESPLCPSLGKHLIPDASGKGVNYIPSEERAPGLPNHGATFKELHPQTEGMCPRMTVPALHTAINTEPLFGTLRDGCHRLPKIKETTV
# Variants of: B1
# Conditions: with scrib_human SCRIB
row,effect of a mutation on the interaction,Variant
1,increasing interaction strength,S1575E

# Variants of: B2
# Conditions: with scrib_human SCRIB
# Target sequence in this assay (Q14160 whole entry): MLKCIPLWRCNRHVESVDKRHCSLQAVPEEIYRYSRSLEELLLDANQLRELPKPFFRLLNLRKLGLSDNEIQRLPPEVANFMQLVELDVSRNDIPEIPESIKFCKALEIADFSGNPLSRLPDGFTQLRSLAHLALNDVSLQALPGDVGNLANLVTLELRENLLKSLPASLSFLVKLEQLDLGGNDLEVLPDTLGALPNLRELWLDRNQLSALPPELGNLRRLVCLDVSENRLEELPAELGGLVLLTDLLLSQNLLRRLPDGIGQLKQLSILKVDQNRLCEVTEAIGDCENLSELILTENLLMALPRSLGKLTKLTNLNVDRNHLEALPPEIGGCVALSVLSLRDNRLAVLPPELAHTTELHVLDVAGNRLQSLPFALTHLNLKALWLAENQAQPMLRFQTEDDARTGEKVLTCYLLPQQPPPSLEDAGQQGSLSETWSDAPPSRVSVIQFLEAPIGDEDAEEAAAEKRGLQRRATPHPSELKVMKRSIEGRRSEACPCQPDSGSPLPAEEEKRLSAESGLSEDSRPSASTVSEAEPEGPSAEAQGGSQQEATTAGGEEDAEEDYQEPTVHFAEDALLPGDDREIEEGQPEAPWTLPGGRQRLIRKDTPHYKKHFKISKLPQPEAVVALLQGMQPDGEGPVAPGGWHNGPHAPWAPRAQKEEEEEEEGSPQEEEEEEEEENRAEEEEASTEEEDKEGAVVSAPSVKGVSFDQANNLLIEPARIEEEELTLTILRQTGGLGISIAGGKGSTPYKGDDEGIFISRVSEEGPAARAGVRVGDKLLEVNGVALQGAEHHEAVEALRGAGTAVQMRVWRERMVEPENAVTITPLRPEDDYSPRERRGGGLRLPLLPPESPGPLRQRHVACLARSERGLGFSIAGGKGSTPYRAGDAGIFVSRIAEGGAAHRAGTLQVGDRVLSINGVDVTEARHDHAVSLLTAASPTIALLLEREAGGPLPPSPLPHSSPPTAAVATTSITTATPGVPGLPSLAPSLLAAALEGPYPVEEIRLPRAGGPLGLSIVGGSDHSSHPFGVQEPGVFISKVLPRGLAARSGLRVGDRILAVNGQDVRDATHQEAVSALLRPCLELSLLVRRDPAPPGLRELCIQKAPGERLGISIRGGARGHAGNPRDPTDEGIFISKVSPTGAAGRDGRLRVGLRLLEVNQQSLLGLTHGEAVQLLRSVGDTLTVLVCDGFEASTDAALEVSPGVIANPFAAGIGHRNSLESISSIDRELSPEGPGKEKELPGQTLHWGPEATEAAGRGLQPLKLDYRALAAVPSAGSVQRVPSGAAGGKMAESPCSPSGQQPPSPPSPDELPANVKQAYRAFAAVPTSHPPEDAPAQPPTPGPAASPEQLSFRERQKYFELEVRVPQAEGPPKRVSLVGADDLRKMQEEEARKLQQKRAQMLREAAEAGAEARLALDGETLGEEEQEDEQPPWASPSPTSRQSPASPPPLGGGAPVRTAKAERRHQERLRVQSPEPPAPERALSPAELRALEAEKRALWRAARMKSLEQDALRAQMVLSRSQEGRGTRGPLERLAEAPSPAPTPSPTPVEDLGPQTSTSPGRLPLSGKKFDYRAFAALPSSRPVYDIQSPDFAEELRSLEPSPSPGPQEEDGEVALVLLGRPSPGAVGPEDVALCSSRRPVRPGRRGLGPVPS
row,effect of a mutation on the interaction,Variant
1,increasing interaction strength,S828E

# Variants of: B2
# Conditions: with shan1_human SHANK1, Q9Y566
# shan1_human SHANK1, Q9Y566, sequence (Q9Y566 whole entry): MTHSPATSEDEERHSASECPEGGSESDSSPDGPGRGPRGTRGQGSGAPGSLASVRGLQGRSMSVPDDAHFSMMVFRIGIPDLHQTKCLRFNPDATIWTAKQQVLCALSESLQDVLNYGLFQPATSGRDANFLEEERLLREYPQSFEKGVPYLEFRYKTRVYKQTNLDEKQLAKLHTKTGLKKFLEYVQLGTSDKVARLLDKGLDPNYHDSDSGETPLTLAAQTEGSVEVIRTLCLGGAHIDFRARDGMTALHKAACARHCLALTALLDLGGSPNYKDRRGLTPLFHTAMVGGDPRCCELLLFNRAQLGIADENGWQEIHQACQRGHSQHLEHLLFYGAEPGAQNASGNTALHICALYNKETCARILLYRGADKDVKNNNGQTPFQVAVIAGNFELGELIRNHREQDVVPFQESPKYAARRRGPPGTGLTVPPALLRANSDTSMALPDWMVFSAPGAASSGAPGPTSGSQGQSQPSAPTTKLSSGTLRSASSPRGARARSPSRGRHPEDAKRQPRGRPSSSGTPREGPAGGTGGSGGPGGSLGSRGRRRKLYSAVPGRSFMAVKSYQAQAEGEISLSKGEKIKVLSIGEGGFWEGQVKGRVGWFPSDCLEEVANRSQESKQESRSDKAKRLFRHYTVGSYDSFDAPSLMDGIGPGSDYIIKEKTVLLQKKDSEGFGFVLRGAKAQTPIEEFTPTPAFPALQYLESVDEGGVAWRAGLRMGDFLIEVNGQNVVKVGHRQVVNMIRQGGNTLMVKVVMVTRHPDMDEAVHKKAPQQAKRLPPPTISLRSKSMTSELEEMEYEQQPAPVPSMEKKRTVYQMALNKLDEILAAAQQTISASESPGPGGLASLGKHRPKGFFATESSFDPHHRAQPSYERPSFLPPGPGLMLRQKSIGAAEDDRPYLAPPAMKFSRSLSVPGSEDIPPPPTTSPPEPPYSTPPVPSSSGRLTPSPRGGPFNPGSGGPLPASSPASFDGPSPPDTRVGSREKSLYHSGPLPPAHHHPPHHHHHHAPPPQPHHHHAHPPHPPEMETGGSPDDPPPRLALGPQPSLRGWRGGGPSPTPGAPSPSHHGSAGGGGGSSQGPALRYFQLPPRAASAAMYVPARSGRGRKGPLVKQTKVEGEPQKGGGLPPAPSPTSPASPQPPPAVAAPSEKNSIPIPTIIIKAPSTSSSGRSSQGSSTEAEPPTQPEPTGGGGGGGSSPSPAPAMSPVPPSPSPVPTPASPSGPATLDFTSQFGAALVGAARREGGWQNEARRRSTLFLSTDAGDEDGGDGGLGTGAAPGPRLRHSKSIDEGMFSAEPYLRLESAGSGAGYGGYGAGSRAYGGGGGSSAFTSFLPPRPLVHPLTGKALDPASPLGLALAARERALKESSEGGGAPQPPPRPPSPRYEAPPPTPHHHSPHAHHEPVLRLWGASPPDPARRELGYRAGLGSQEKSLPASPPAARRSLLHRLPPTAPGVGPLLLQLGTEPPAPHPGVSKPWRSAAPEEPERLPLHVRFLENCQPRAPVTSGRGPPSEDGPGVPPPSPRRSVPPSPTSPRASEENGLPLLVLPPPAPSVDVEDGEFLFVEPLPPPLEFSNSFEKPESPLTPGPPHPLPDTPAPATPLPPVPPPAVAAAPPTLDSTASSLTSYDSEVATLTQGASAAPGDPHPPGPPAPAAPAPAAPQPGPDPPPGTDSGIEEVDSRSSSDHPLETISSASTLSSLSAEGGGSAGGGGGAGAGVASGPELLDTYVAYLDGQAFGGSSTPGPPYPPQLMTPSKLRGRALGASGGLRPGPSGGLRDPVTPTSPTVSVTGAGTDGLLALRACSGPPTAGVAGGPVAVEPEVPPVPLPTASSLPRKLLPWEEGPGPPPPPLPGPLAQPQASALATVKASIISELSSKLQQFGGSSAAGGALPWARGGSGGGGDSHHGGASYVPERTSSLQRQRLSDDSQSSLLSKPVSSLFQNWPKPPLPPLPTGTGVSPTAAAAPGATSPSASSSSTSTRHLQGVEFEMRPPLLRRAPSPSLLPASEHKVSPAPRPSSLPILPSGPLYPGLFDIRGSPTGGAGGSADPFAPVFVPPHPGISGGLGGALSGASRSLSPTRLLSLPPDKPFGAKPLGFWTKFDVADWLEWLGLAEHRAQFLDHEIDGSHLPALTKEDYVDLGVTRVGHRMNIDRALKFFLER
row,effect of a mutation on the interaction,Variant
1,decreasing interaction strength,S828E

# Variants of: B2
# Conditions: with dlg1_human DLG1, Q12959
# Target sequence in this assay (Q12959 whole entry, looked up): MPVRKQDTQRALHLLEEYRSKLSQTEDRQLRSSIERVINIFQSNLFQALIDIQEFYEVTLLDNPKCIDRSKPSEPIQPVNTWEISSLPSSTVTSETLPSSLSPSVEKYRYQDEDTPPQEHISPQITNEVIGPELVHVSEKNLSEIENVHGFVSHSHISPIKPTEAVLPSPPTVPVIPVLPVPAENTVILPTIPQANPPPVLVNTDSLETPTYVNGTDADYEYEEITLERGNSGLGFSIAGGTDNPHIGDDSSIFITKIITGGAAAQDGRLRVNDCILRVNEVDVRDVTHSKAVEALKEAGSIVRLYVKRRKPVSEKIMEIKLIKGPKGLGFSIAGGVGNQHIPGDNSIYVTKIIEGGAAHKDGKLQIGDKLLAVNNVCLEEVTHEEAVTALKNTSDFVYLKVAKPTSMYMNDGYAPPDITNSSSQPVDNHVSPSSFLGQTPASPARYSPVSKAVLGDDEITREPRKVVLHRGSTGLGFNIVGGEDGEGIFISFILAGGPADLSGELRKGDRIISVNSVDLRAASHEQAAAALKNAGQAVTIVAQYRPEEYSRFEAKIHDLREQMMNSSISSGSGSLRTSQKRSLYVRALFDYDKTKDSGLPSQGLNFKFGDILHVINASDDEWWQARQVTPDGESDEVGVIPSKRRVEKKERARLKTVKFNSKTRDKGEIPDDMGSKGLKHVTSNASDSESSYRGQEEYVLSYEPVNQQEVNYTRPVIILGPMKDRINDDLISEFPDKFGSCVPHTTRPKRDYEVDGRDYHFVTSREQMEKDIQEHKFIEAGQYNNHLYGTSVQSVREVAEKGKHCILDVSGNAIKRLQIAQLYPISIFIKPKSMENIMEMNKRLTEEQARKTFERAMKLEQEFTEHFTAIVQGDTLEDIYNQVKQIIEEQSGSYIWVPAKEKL
row,effect of a mutation on the interaction,Variant
1,decreasing interaction strength,S828E

# Variants of: B3
# Conditions: with scrib_human SCRIB
# Target sequence in this assay (Q14160 whole entry): as the sequence (Q14160 whole entry) above
row,effect of a mutation on the interaction,Variant
1,disrupting interaction strength,MTAGTVVITGGILATVILLCIIAVLCYCRLQYYCCKKDESEEDEEEPDFAVHSHLPPLHSNRNLVLTNGPALYPTASTSFSQKSPQARALCRSCSHCEPPTFFLQEPPEEEEDVLNGGERVLYKSVSQEDVELPPGGFGGLQALNPNRLSAMREAFARSRSISEDV [T164E]

# Variants of: B3
# Conditions: with dlg1_human DLG1, Q12959
# Target sequence in this assay (Q12959 whole entry, looked up): as the sequence (Q12959 whole entry, looked up) above
row,effect of a mutation on the interaction,Variant
1,disrupting interaction strength,MTAGTVVITGGILATVILLCIIAVLCYCRLQYYCCKKDESEEDEEEPDFAVHSHLPPLHSNRNLVLTNGPALYPTASTSFSQKSPQARALCRSCSHCEPPTFFLQEPPEEEEDVLNGGERVLYKSVSQEDVELPPGGFGGLQALNPNRLSAMREAFARSRSISEDV [T164E]

# Variants of: B3
# Conditions: with scrib_human SCRIB
# Remark: another data set of the same source
# Target sequence in this assay (Q14160 whole entry): as the sequence (Q14160 whole entry) above
row,effect of a mutation on the interaction,Variant
1,with no effect,MTAGTVVITGGILATVILLCIIAVLCYCRLQYYCCKKDESEEDEEEPDFAVHSHLPPLHSNRNLVLTNGPALYPTASTSFSQKSPQARALCRSCSHCEPPTFFLQEPPEEEEDVLNGGERVLYKSVSQEDVELPPGGFGGLQALNPNRLSAMREAFARSRSIETDV [S163E]

# Variants of: B4
# Conditions: with scrib_human SCRIB
# Target sequence in this assay (Q14160 whole entry): as the sequence (Q14160 whole entry) above
row,effect of a mutation on the interaction,Variant
1,decreasing interaction strength,MPPMPSAPPVHPPPDGGWGWIVVGAAFISIGFSYAFPKAVTVFFKEIQQIFHTTYSEIAWISSIMLAVMYAGGPVSSVLVNKYGSRPVVIAGGLLCCLGMVLASFSSSVVQLYLTMGFITGLGLAFNLQPALTIIGKYFYRKRPMANGLAMAGSPVFLSSLAPFNQYLFNTFGWKGSFLILGSLLLNACVAGSLMRPLGPNQTTSKSKNKTGKTEDDSSPKKIKTKKSTWEKVNKYLDFSLFKHRGFLIYLSGNVIMFLGFFAPIIFLAPYAKDQGIDEYSAAFLLSVMAFVDMFARPSVGLIANSKYIRPRIQYFFSFAIMFNGVCHLLCPLAQDYTSLVLYAVFFGLGFGSVSSVLFETLMDLVGAPRFSSAVGLVTIVECGPVLLGPPLAGKLVDLTGEYKYMYMSCGAIVVAASVWLLIGNAINYRLLAKERKEENARQKTRESEPLSKSKHSEDVNVKVSNAQSVTEERETNI [S472E]

# Variants of: B5
# Conditions: with scrib_human SCRIB
# Target sequence in this assay (Q14160 whole entry): as the sequence (Q14160 whole entry) above
row,effect of a mutation on the interaction,Variant
1,disrupting interaction strength,T1320E

# Variants of: B5
# Conditions: with dlg1_human DLG1, Q12959
# Target sequence in this assay (Q12959 whole entry, looked up): as the sequence (Q12959 whole entry, looked up) above
row,effect of a mutation on the interaction,Variant
1,disrupting interaction strength,T1320E
